Results published in the supplement of paper PMC9112550, “Optimization of the antimicrobial peptide Bac7 by deep mutational scanning” (BMC Biology, 2022).

Test system: Escherichia coli TOP10
Experiment: shrunken log2 fold change of peptide-encoding DNA abundance (4.5 h post-induction vs induction); higher = less antimicrobial activity (less host growth inhibition)
Settings: time post-induction: 4.5 h; library: site-saturation at positions 5, 18, 19, 20
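Also: peptides expressed intracellularly from a pBAD plasmid library in pooled LB shake-flask culture, induced with 0.3% L-arabinose, DNA abundance read by NGS, three biological replicates, DESeq2 with apeglm shrinkage.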

Sequence | shrunken log2 fold change
RRIRNRPPRLPRPRPRPPVWPRP | 0.476
RRIRNRPPRLPRPRPRPPYVPRP | -0.0374
RRIRNRPPRLPRPRPRPQACPRP | -0.0265
RRIRNRPPRLPRPRPRPQAGPRP | -0.128
RRIRNRPPRLPRPRPRPQAMPRP | -0.0233
RRIRNRPPRLPRPRPRPQCIPRP | -0.135
RRIRNRPPRLPRPRPRPQCLPRP | 0.197
RRIRNRPPRLPRPRPRPQEDPRP | 0.00256
RRIRNRPPRLPRPRPRPQEKPRP | -0.198
RRIRNRPPRLPRPRPRPQELPRP | -0.14
RRIRNRPPRLPRPRPRPQEPPRP | 0.084
RRIRNRPPRLPRPRPRPQGDPRP | 4.25
RRIRNRPPRLPRPRPRPQGFPRP | -0.00956
RRIRNRPPRLPRPRPRPQGVPRP | 0.0991
RRIRNRPPRLPRPRPRPQIKPRP | -0.479
RRIRNRPPRLPRPRPRPQIMPRP | -0.127
RRIRNRPPRLPRPRPRPQKEPRP | -0.0193
RRIRNRPPRLPRPRPRPQKSPRP | -0.101
RRIRNRPPRLPRPRPRPQLEPRP | 0.307
RRIRNRPPRLPRPRPRPQLMPRP | -0.0332
RRIRNRPPRLPRPRPRPQLNPRP | -0.539
RRIRNRPPRLPRPRPRPQLTPRP | -0.026
RRIRNRPPRLPRPRPRPQMWPRP | -0.234
RRIRNRPPRLPRPRPRPQNDPRP | -0.966
RRIRNRPPRLPRPRPRPQNGPRP | 0.00902

Sequence | shrunken log2 fold change
RRIRNRPPRLPRPRPRPQPIPRP | 0.14
RRIRNRPPRLPRPRPRPQPMPRP | -0.111
RRIRNRPPRLPRPRPRPQQVPRP | -0.0087
RRIRNRPPRLPRPRPRPQRSPRP | 0.0667
RRIRNRPPRLPRPRPRPQSFPRP | -0.0341
RRIRNRPPRLPRPRPRPQSIPRP | -0.0502
RRIRNRPPRLPRPRPRPQTNPRP | -0.276
RRIRNRPPRLPRPRPRPQVVPRP | 0.0145
RRIRNRPPRLPRPRPRPQWDPRP | -0.0901
RRIRNRPPRLPRPRPRPQYWPRP | -0.37
RRIRNRPPRLPRPRPRPRDIPRP | -0.138
RRIRNRPPRLPRPRPRPRDMPRP | -0.121
RRIRNRPPRLPRPRPRPRELPRP | 0.287
RRIRNRPPRLPRPRPRPREVPRP | 0.00782
RRIRNRPPRLPRPRPRPRGKPRP | 0.0233
RRIRNRPPRLPRPRPRPRGRPRP | 0.316
RRIRNRPPRLPRPRPRPRHHPRP | -0.246
RRIRNRPPRLPRPRPRPRIPPRP | 0.157
RRIRNRPPRLPRPRPRPRKMPRP | 0.263
RRIRNRPPRLPRPRPRPRMEPRP | -0.0307
RRIRNRPPRLPRPRPRPRNWPRP | -0.149
RRIRNRPPRLPRPRPRPRPDPRP | 0.0914
RRIRNRPPRLPRPRPRPRPHPRP | 0.226
RRIRNRPPRLPRPRPRPRQGPRP | -0.0662
RRIRNRPPRLPRPRPRPRQPPRP | 0.428

Sequence | shrunken log2 fold change
RRIRNRPPRLPRPRPRPRRSPRP | 0.428
RRIRNRPPRLPRPRPRPRTAPRP | -0.0352
RRIRNRPPRLPRPRPRPRTYPRP | -0.571
RRIRNRPPRLPRPRPRPRVCPRP | 0.205
RRIRNRPPRLPRPRPRPRVPPRP | -0.134
RRIRNRPPRLPRPRPRPRWTPRP | 0.0415
RRIRNRPPRLPRPRPRPRYFPRP | -0.342
RRIRNRPPRLPRPRPRPSCLPRP | -0.4
RRIRNRPPRLPRPRPRPSDGPRP | 0.0337
RRIRNRPPRLPRPRPRPSGAPRP | -0.0216
RRIRNRPPRLPRPRPRPSLAPRP | 0.0683
RRIRNRPPRLPRPRPRPSLCPRP | 0.0773
RRIRNRPPRLPRPRPRPSLNPRP | -0.335
RRIRNRPPRLPRPRPRPSLRPRP | -0.00371
RRIRNRPPRLPRPRPRPSMEPRP | -0.118
RRIRNRPPRLPRPRPRPSMVPRP | -0.508
RRIRNRPPRLPRPRPRPSNQPRP | -0.299
RRIRNRPPRLPRPRPRPSNYPRP | -0.791
RRIRNRPPRLPRPRPRPSPIPRP | -0.561
RRIRNRPPRLPRPRPRPSRMPRP | -0.454
RRIRNRPPRLPRPRPRPSTHPRP | -0.274
RRIRNRPPRLPRPRPRPSTTPRP | -0.47
RRIRNRPPRLPRPRPRPSVLPRP | 0.0978
RRIRNRPPRLPRPRPRPSWFPRP | -0.398
RRIRNRPPRLPRPRPRPSWHPRP | -0.535

Sequence | shrunken log2 fold change
RRIRNRPPRLPRPRPRPSYCPRP | -0.267
RRIRNRPPRLPRPRPRPSYNPRP | -0.974
RRIRNRPPRLPRPRPRPSYTPRP | -1.13
RRIRNRPPRLPRPRPRPTCCPRP | -0.0383
RRIRNRPPRLPRPRPRPTCVPRP | -0.185
RRIRNRPPRLPRPRPRPTEGPRP | 0.0116
RRIRNRPPRLPRPRPRPTFGPRP | -0.084
RRIRNRPPRLPRPRPRPTGHPRP | 0.0742
RRIRNRPPRLPRPRPRPTGLPRP | 0.0817
RRIRNRPPRLPRPRPRPTHHPRP | -0.0659
RRIRNRPPRLPRPRPRPTHRPRP | 0.597
RRIRNRPPRLPRPRPRPTIGPRP | -0.00466
RRIRNRPPRLPRPRPRPTIWPRP | -0.23
RRIRNRPPRLPRPRPRPTLLPRP | -0.168
RRIRNRPPRLPRPRPRPTLPPRP | 0.149
RRIRNRPPRLPRPRPRPTLRPRP | 0.334
RRIRNRPPRLPRPRPRPTLSPRP | 0.145
RRIRNRPPRLPRPRPRPTMRPRP | 0.746
RRIRNRPPRLPRPRPRPTNHPRP | -0.527
RRIRNRPPRLPRPRPRPTPAPRP | 0.713
RRIRNRPPRLPRPRPRPTPFPRP | -0.07
RRIRNRPPRLPRPRPRPTRTPRP | 0.211
RRIRNRPPRLPRPRPRPTRVPRP | 0.376
RRIRNRPPRLPRPRPRPTRWPRP | 0.292
RRIRNRPPRLPRPRPRPTTEPRP | -0.257

Sequence | shrunken log2 fold change
RRIRNRPPRLPRPRPRPTVGPRP | -0.0817
RRIRNRPPRLPRPRPRPTVHPRP | -0.514
RRIRNRPPRLPRPRPRPVAGPRP | -0.124
RRIRNRPPRLPRPRPRPVCIPRP | -0.215
RRIRNRPPRLPRPRPRPVCSPRP | -0.19
RRIRNRPPRLPRPRPRPVCVPRP | -0.04
RRIRNRPPRLPRPRPRPVDNPRP | 0.104
RRIRNRPPRLPRPRPRPVFYPRP | -0.19
RRIRNRPPRLPRPRPRPVGGPRP | 0.279
RRIRNRPPRLPRPRPRPVGYPRP | 0.025
RRIRNRPPRLPRPRPRPVHLPRP | -0.138
RRIRNRPPRLPRPRPRPVKDPRP | -0.01
RRIRNRPPRLPRPRPRPVKFPRP | -0.0271
RRIRNRPPRLPRPRPRPVKMPRP | -0.107
RRIRNRPPRLPRPRPRPVMLPRP | -0.171
RRIRNRPPRLPRPRPRPVMRPRP | 0.526
RRIRNRPPRLPRPRPRPVPFPRP | 0.041
RRIRNRPPRLPRPRPRPVPKPRP | 0.883
RRIRNRPPRLPRPRPRPVPSPRP | 0.155
RRIRNRPPRLPRPRPRPVQRPRP | -0.186
RRIRNRPPRLPRPRPRPVQSPRP | 0.00489
RRIRNRPPRLPRPRPRPVRTPRP | 0.296
RRIRNRPPRLPRPRPRPVSYPRP | 0.0156
RRIRNRPPRLPRPRPRPVTIPRP | -0.463
RRIRNRPPRLPRPRPRPVTLPRP | -0.3

Sequence | shrunken log2 fold change
RRIRNRPPRLPRPRPRPVTRPRP | -0.124
RRIRNRPPRLPRPRPRPVVHPRP | -0.165
RRIRNRPPRLPRPRPRPVWKPRP | 0.119
RRIRNRPPRLPRPRPRPVYGPRP | -0.0867
RRIRNRPPRLPRPRPRPWCGPRP | -0.263
RRIRNRPPRLPRPRPRPWDAPRP | -0.157
RRIRNRPPRLPRPRPRPWDTPRP | -0.0124
RRIRNRPPRLPRPRPRPWEEPRP | -0.00133
RRIRNRPPRLPRPRPRPWFNPRP | -0.448
RRIRNRPPRLPRPRPRPWFQPRP | -0.109
RRIRNRPPRLPRPRPRPWHMPRP | -0.0135
RRIRNRPPRLPRPRPRPWIAPRP | -0.135
RRIRNRPPRLPRPRPRPWIEPRP | -0.042
RRIRNRPPRLPRPRPRPWIKPRP | -0.739
RRIRNRPPRLPRPRPRPWIQPRP | -0.209
RRIRNRPPRLPRPRPRPWKVPRP | -1.21
RRIRNRPPRLPRPRPRPWLMPRP | -0.13
RRIRNRPPRLPRPRPRPWMLPRP | -0.0937
RRIRNRPPRLPRPRPRPWMSPRP | -0.0131
RRIRNRPPRLPRPRPRPWNWPRP | -0.0655
RRIRNRPPRLPRPRPRPWNYPRP | -0.101
RRIRNRPPRLPRPRPRPWPHPRP | -0.0312
RRIRNRPPRLPRPRPRPWQKPRP | -0.18
RRIRNRPPRLPRPRPRPWRKPRP | -0.0392
RRIRNRPPRLPRPRPRPWSFPRP | -0.538
